Entries after “also recorded” stand apart in the source; their conditions may differ. Read-outs that look alike come from different tables or passages of the source.
How the values were obtained:
CD19+ B-cells = assay: CD19+ B-cell depletion in ASCLEPIOS; type: in vivo, human
Description: ASCLEPIOS I and II are double-blind, double-dummy, active comparator-controlled, parallel-group, innovative, adaptive design, multicentre trials. Patients were randomised (1:1) to receive either ofatumumab 20 mg sc injections every 4 weeks (after an initial loading regimen of 20 mg sc doses on Days 1, 7 and 14) or teriflunomide 14 mg orally once daily, for up to 30 months. […] Patients aged 18-55 years with an Expanded Disability Status Scale (EDSS) score (according to Kurtzke, Neurology. 1983, Nov; 33(11): 1444-52) of 0-5.5 at screening who experienced ≥1 relapse in the past year or ≥2 relapses in the past 2 years or a positive gadolinium-enhancing (Gd+) MRI scan during the year before randomisation were included.

serum IgM = assay: Serum IgM levels in ASCLEPIOS I/II (Pool C2); type: in vivo, human
Description: In the present application serum Ig levels can preferably be determined by immunoturbidimetry. Preferably a Roche cobas® Analyzer was used, especially module c of the cobas® analyser.
(§3) Serum samples were preferably kept at 2-8° C. before measurement.
ASCLEPIOS I and II are double-blind, double-dummy, active comparator-controlled, parallel-group, innovative, adaptive design, multicentre trials. Patients were randomised (1:1) to receive either ofatumumab 20 mg sc injections every 4 weeks (after an initial loading regimen of 20 mg sc doses on Days 1, 7 and 14) or teriflunomide 14 mg orally once daily, for up to 30 months.

B cells = assay: B-cell repletion after study treatment discontinuation (Pool C2, OMS115102); type: in vivo, human; conditions: study OMS115102, approximately 48 weeks post study
IgG levels = assay: Metanalysis of Example 1 versus Derfuss et al. (pooled OPERA), IgG levels; type: in vivo, human
Source text: In a metanalysis, the results of Example 1 and the results obtained by Derfuss et al. were compared.

CD20 receptor on B-cells = assay: Nonclinical ADCC activity comparison; type: cell-based; conditions: ofatumumab compared to ocrelizumab and rituximab
CD20 receptor = biological target: T1, CD20 receptor (Homo sapiens, UniProt P11836); assay: B-cell binding studies, off-rate; conditions: in comparison to rituximab
T1 construct: endogenous in cells
T1 sequence (P11836 1-297): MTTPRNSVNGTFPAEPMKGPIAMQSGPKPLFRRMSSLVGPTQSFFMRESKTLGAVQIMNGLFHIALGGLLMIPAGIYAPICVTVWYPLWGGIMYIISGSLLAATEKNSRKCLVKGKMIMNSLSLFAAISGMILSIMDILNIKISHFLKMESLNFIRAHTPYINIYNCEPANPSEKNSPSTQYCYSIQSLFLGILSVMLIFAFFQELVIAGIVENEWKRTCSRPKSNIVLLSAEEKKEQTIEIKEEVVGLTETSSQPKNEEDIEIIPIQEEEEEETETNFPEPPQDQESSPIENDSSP

IgG = assay: Long term study (Example 5), IgG levels; type: in vivo, human; conditions: OMB long-term group, FIG. 14
Source text: (§1) 2”, preferably version 13.0 dated 2018-11.
(§2) Patients were subjected to a long term treatment.

IgM = assay: Long term study (Example 5), IgM levels; type: in vivo, human; conditions: OMB long-term group, FIGS. 16 and 17
Source text: as §1, §2

serum IgG [1] = conditions: in vivo
Description: (§4) In the present application serum Ig levels can preferably be determined by immunoturbidimetry. Preferably a Roche cobas® Analyzer was used, especially module c of the cobas® analyser. In a preferred embodiment Ig levels can be determined by using a cobas® c 311 analyzer. It is further preferred that IgG measurements are carried out as described in the cobas® leaflet “IGG-2 Tina-quant IgG Gen. 2”, preferably version 11.0 dated 2016-02 and IgM measurements as described in the leaflet “IGM-2 Tina-quant IgM Gen. 2”, preferably version 13.0 dated 2018-11.
as §3
(§5) Patients were randomised (1:1) to receive either ofatumumab 20 mg sc injections every 4 weeks (after an initial loading regimen of 20 mg sc doses on Days 1, 7 and 14) or teriflunomide 14 mg orally once daily, for up to 30 months.
(§6) Serum IgG/IgM levels were monitored at baseline, Week (W) 4, W12 and every 12 weeks, see FIG. 1.

[2] = system: multiple sclerosis patients; conditions: in vivo
Source text: as §6

MS patients [3] = conditions: human, in vivo
MS patients [4] = conditions: cited from earlier work
COVID-19 = conditions: for COVID-19 symptoms duration / Outcome: serious case
Description: Confirmed or suspected cases of COVID-19 infection in patients receiving ofatumumab in the open-label extension study ALITHIOS were reviewed (data cutoff: Dec. 21, 2020)
COVID-19 cases were classified as confirmed if SARS-CoV2 positive test results were available, or patient was reported to be diagnosed with COVID-19
Suspected cases of COVID-19 were classified as suspected if without a positive SARS-CoV2 test or definitive diagnosis
The following COVID-19 case characteristics were assessed:
*Serious criteria is based on the regulatory reporting definition established by ICH, for the purposes of regulatory reporting obligations, and consists of fatal, life-threatening, hospitalization and medically significant

[5] = in vivo, sc, 20 mg
serum IgG [6] = assay: Serum IgG levels in ASCLEPIOS I/II (Pool C2)
Description: as §4, §3, §5, §6

[7] = system: multiple sclerosis patients; assay: Infections in relation to IgM/IgG levels <LLN vs >=LLN in ofatumumab MS studies
Source text: as §6

MS patients [8] = assay: General safety in MS clinical trials with ofatumumab (neutrophils, PML, hepatitis B, malignancy, cytopenia); conditions: human, in vivo

Substance: ofatumumab: recombinant human monoclonal immunoglobulin G1 (IgG1) antibody that binds to human CD20
- patients with CD19+ B-cells below LLN (CD19+ B-cells; Week 1): 77.0%
- patients with CD19+ B-cells below LLN, n/M (CD19+ B-cells; Week 1): 338/439
- patients with CD19+ B-cells below LLN (CD19+ B-cells; Week 1, listed as OMB): (77.0) %
- patients with CD19+ B-cells below LLN (CD19+ B-cells; Week 2): 95.0%
- patients with CD19+ B-cells below LLN, n/M (CD19+ B-cells; Week 2): 420/442
- patients with CD19+ B-cells below LLN (CD19+ B-cells; Week 2, listed as OMB): (95.0) %
- patients with CD19+ B-cells below LLN (CD19+ B-cells; Week 4): (97.8) %
- patients with CD19+ B-cells below LLN, n/M (CD19+ B-cells; Week 4): 440/450
- patients with CD19+ B-cells below LLN (CD19+ B-cells; Week 12): 99.3%
- patients with CD19+ B-cells below LLN, n/M (CD19+ B-cells; Week 12): 440/443
- patients with CD19+ B-cells below LLN (CD19+ B-cells; Week 12, listed as OMB): (99.3) %
- patients with CD19+ B-cells below LLN (CD19+ B-cells; Week 24): (98.4) %
- patients with CD19+ B-cells below LLN, n/M (CD19+ B-cells; Week 24): 422/429
- patients with CD19+ B-cells below LLN (CD19+ B-cells; Week 36): (98.8) %
- patients with CD19+ B-cells below LLN, n/M (CD19+ B-cells; Week 36): 415/420
- patients with CD19+ B-cells below LLN (CD19+ B-cells; Week 48): (98.3) %
- patients with CD19+ B-cells below LLN, n/M (CD19+ B-cells; Week 48): 397/404
- patients with CD19+ B-cells below LLN (CD19+ B-cells; Week 60): (96.7) %
- patients with CD19+ B-cells below LLN, n/M (CD19+ B-cells; Week 60): 385/398
- patients with CD19+ B-cells below LLN (CD19+ B-cells; Week 72): (98.2) %
- patients with CD19+ B-cells below LLN, n/M (CD19+ B-cells; Week 72): 379/386
- patients with CD19+ B-cells below LLN (CD19+ B-cells; Week 84): (98.9) %
- patients with CD19+ B-cells below LLN, n/M (CD19+ B-cells; Week 84): 260/263
- patients with CD19+ B-cells below LLN (CD19+ B-cells; Week 96): (99.4) %
- patients with CD19+ B-cells below LLN, n/M (CD19+ B-cells; Week 96): 161/162
- patients with CD19+ B-cells below LLN (CD19+ B-cells; Week 108): (97.9) %
- patients with CD19+ B-cells below LLN, n/M (CD19+ B-cells; Week 108): 93/95
- patients with CD19+ B-cells below LLN (CD19+ B-cells; Week 120): (100) %
- patients with CD19+ B-cells below LLN, n/M (CD19+ B-cells; Week 120): 28/28
- median CD19+ B-cell count (CD19+ B-cells; from Week 2 onwards): zero
- patients in whom CD19+ B-cell depletion was maintained (CD19+ B-cells; throughout the treatment period): > 96%
- IgM decline with treatment (serum IgM; MS studies): some level of IgM decline but the majority of the patients remained above LLN
- change in mean IgM (serum IgM; Week 96 completers, Pool C2): -0.537 g/L
- decline in mean IgM (serum IgM; Week 96 completers, Pool C2): 38.8%
- proportion of patients with IgM levels below LLN and 10% below the LLN versus teriflunomide (serum IgM; any time post baseline and at Week 96, FIG. 8): higher proportion
- patients with IgM levels on or above the LLN (serum IgM; any time post-baseline, FIG. 9): 82-89%
- change in mean IgM value (serum IgM; baseline to Week 48, Pool C2): -0.420 g/L
- decrease in mean IgM value (serum IgM; baseline to Week 48, Pool C2): 30.9%
- mean serum IgM levels versus reference range (serum IgM; over time, reference range 0.40-2.30 g/L): remained well within the reference ranges
- B-cell repletion (B cells): B cells for all subjects were repleted, with the exception of one subject
- increase of IgG levels (IgG levels; after two years (96 weeks)): about 3%
- effect on IgG levels on the long term (IgG levels; in vivo): sustains and even increases IgG levels
- ADCC activity (CD20 receptor on B-cells): No relevant difference
- off-rate (dissociation rate of the antibody from the CD20 receptor) (CD20 receptor): lower off-rate
- IgG levels over long-term follow-up (IgG): stable over the long-term follow-up of >4 years
- IgM levels with longer duration (IgM): levels remained above the lower limit of normal
- patients with IgG below LLN, n/N (serum IgG [1]): 134/944
- Infections observed after the first drop of IgG<LLN [2]: 45.5%
- Infections observed after the first drop of IgG<LLN, number of patients [2]: 61
- Number of patients with at least 1 infection AE by Grade: Grade 4 [2]: 0 n
- infection AE by outcome: Recovered/resolved [2]: 0 n
- infection AE by outcome: Recovered/resolved with sequelae [2]: 0 n
- infection AE by outcome: Recovering/resolving [2]: 0 n
- patients who received immunoglobulin substitution therapy for decrease in IgG/M [2]: none of the patients
- patients who reported an infection post study drug discontinuation [2]: six of 32
- serious opportunistic infections [2]: no cases
- cases of PML or Hepatitis B reactivation or serious potential OI (MS patients [3]): no cases
- incidence of malignancy (MS patients [3]): no increased incidence
- mean and median values of neutrophil count (MS patients [3]): remained within the normal ranges
- risk of neutropenia (MS patients [3]): No risk of neutropenia
- suppression of gadolinium (Gd) T1 lesions when compared to Aubagio (MS patients [4]; ASCLEPIOS I/II): highly significant suppression
- annualized relapse rate (ARR) (MS patients [4]; ASCLEPIOS I): 0.11
- reduction in annualized relapse rate (ARR) compared to Aubagio (teriflunomide) (MS patients [4]; ASCLEPIOS I): 50.5%
- annualized relapse rate (ARR) (MS patients [4]; ASCLEPIOS II): 0.10
- reduction in annualized relapse rate (ARR) compared to Aubagio (teriflunomide) (MS patients [4]; ASCLEPIOS II): 58.5%
- relative risk reduction in 3-month confirmed disability progression (CDP) versus Aubagio (MS patients [4]; pre-specified pooled analyses): 34.4%
- relative risk reduction in 6-month CDP versus Aubagio (MS patients [4]; pre-specified pooled analyses): 32.5%
- COVID-19 outcome: Ongoing (COVID-19; Non-serious (n = 29)): 0
- COVID-19 outcome: Recovered (COVID-19; Non-serious (n = 29)): 29
- COVID-19 outcome: Recovering (COVID-19; Non-serious (n = 29)): 0
- COVID-19 outcome: Recovered (COVID-19; Serious (n = 6)): 5
- cases with no change in ofatumumab treatment required (COVID-19; confirmed COVID-19 infection): 21 cases
- cases with treatment temporarily interrupted due to confirmed COVID-19 infection (COVID-19; human, in vivo): 5 cases
- cases with complete recovery (COVID-19; of 35 confirmed cases): 34 cases
- confirmed COVID-19 cases, Non-serious (COVID-19; of 35 confirmed cases): Non-serious (n = 29)
- COVID-19 symptoms duration (COVID-19; Patient ID 5409018): ~50 days
- Outcome (COVID-19; Patient ID 5409018): Complete
- COVID-19 symptoms duration (COVID-19; Patient ID 5608014): 18 days
- Outcome (COVID-19; Patient ID 5608014): Complete
- COVID-19 symptoms duration (COVID-19; Patient ID 5800004): ~30 days
- Outcome (COVID-19; Patient ID 5800004): Fatal
- COVID-19 symptoms duration (COVID-19; Patient ID 5800043): 11 days
- Outcome (COVID-19; Patient ID 5800043): Complete
- COVID-19 symptoms duration (COVID-19; Patient ID 5801015): 15 days
- Outcome (COVID-19; Patient ID 5801015): Complete
- COVID-19 symptoms duration (COVID-19; Patient ID 5806001): 10 days
- Outcome (COVID-19; Patient ID 5806001): Complete
- half-life at steady state [5]: approximately 16 days
- recovery of IgG levels after reduction until Week 36 (serum IgG [6]; ASCLEPIOS I and II, FIG. 7): recovered up to baseline levels by W72
- change in mean serum IgG value from baseline (serum IgG [6]; Week 96): +0.249 g/L
- patients with IgG levels 20% below the LLN (serum IgG [6]; Week 96 (Week-96 completers)): no ofatumumab patients
- increase in mean serum IgG value from baseline (serum IgG [6]; Week 96, ASCLEPIOS studies): 2.2%
- proportion of patients with IgG levels below the LLN versus teriflunomide (serum IgG [6]; any time post-baseline, FIG. 8): lower proportion
- patients with IgG levels on or above the LLN (serum IgG [6]; any time post-baseline, FIG. 9): > 85%
- proportion of patients with IgG below LLN (serum IgG [6]; anytime during post baseline visit): 14.2%
- turning point at which the trend of decreasing IgG levels reverses (serum IgG [6]; in vivo): 36 week
- mean serum IgG over time compared to baseline (serum IgG [6]; over 96 weeks treatment): no decrease in mean values; also recorded: No decrease in mean serum IgG
- decrease of IgG levels (serum IgG [6]; week 72 and thereafter): no decrease
- Number of patients with at least 1 infection AE by Grade: Grade 4 ([7]; IgG <LLN, N = 134): 0 n
- infection AE by outcome: Fatal ([7]; IgG <LLN, N = 134): 0 n
- infection AE by outcome: Fatal ([7]; IgM <LLN, N = 167): 0 n
- infection AE by outcome: Fatal ([7]; IgM ≥LLN, N = 777): 0 n
- cytopenia during therapy (MS patients [8]): No cytopenia

— patent US20230151106A1, “OFATUMUMAB FOR TREATING MS WHILE MAINTAINING SERUM IgG” (NOVARTIS AG, priority 2020, published 2023)
